Measured values taken from US5866538A, “Insulin preparations containing NaCl” (Novo Nordisk A/S, priority 1996, dated 1999).

How the values were obtained:
[1] = Stability (formation of dimers and polymers) of B29-N^ε-myristoyl des(B30) human insulin solutions, glycerol or mannitol, varying NaCl (Example VI); assay type: physicochemical; conditions: pH 7.5
Description: Solutions containing 0.6 mM B29-N^ε -myristoyl des(B30) human insulin, 1.5 mg/ml phenol and 1.72 mg/ml m-cresol, 16 mg/ml glycerol or 36 mg/ml mannitol, 13.1 μg/ml Zn, 7 mM sodium phosphate and varying amounts of sodium chloride were prepared. pH was adjusted to 7.5. Stability data (formation of dimers and polymers) after storage at 25° C. for 13 weeks or 37° C. for 8 weeks are presented in the following table 8.

[2] = Stability (formation of dimers and polymers) of B29-N^ε-myristoyl-des(B30) human insulin solutions, varying NaCl, mannitol and phenol (Example V); assay type: physicochemical; conditions: pH 7.4
Description: Solutions containing 0.6 mM B29-N^ε -myristoyl-des(B30) human insulin, 1.5 or 4.0 mg/ml phenol, 5 mM sodium phosphate, 13.1 μg/ml Zn, and varying amounts of sodium chloride and mannitol were prepared. pH was adjusted to 7.4. Stability data (formation of dimers and polymers) after storage at 25° C. for 13 weeks or 37° C. for 8 weeks are presented in the following table 7.

B29-N^ε -myristoyl-des(B30) human insulin
Di- & polymers (%) formed ([1]; 8 weeks at 37° C., NaCl 5 mM, glycerol 16 mg/ml): 2.55%
Di- & polymers (%) formed ([1]; 8 weeks at 37° C., NaCl 5 mM, mannitol 36 mg/ml): 2.28%
Di- & polymers (%) formed ([1]; 8 weeks at 37° C., NaCl 10 mM, glycerol 16 mg/ml): 2.25%
Di- & polymers (%) formed ([1]; 8 weeks at 37° C., NaCl 10 mM, mannitol 36 mg/ml): 1.90%
Di- & polymers (%) formed ([1]; 8 weeks at 37° C., NaCl 20 mM, glycerol 16 mg/ml): 1.82%
Di- & polymers (%) formed ([1]; 8 weeks at 37° C., NaCl 20 mM, mannitol 36 mg/ml): 1.61%
Di- & polymers (%) formed ([1]; 8 weeks at 37° C., NaCl 30 mM, glycerol 16 mg/ml): 1.83%
Di- & polymers (%) formed ([1]; 8 weeks at 37° C., NaCl 40 mM, glycerol 16 mg/ml): 1.78%
Di- & polymers (%) formed ([1]; 8 weeks at 37° C., NaCl 40 mM, mannitol 36 mg/ml): 1.56%
Di- & polymers (%) formed ([1]; 8 weeks at 37° C., NaCl 50 mM, glycerol 16 mg/ml): 1.68%
Di- & polymers (%) formed ([1]; 13 weeks at 25° C., NaCl 5 mM, glycerol 16 mg/ml): 1.08%
Di- & polymers (%) formed ([1]; 13 weeks at 25° C., NaCl 5 mM, mannitol 36 mg/ml): 1.05%
Di- & polymers (%) formed ([1]; 13 weeks at 25° C., NaCl 10 mM, glycerol 16 mg/ml): 0.98%
Di- & polymers (%) formed ([1]; 13 weeks at 25° C., NaCl 10 mM, mannitol 36 mg/ml): 0.84%
Di- & polymers (%) formed ([1]; 13 weeks at 25° C., NaCl 20 mM, glycerol 16 mg/ml): 0.80%
Di- & polymers (%) formed ([1]; 13 weeks at 25° C., NaCl 20 mM, mannitol 36 mg/ml): 0.71%
Di- & polymers (%) formed ([1]; 13 weeks at 25° C., NaCl 30 mM, glycerol 16 mg/ml): 0.80%
Di- & polymers (%) formed ([1]; 13 weeks at 25° C., NaCl 40 mM, glycerol 16 mg/ml): 0.79%
Di- & polymers (%) formed ([1]; 13 weeks at 25° C., NaCl 40 mM, mannitol 36 mg/ml): 0.70%
Di- & polymers (%) formed ([1]; 13 weeks at 25° C., NaCl 50 mM, glycerol 16 mg/ml): 0.72%
Di- & polymers (%) formed ([2]; 8 weeks at 37° C., NaCl 20 mM, mannitol 31 mg/ml, phenol 1.5 mg/ml): 0.77%
Di- & polymers (%) formed ([2]; 8 weeks at 37° C., NaCl 20 mM, mannitol 31 mg/ml, phenol 4.0 mg/ml): 0.77%
Di- & polymers (%) formed ([2]; 8 weeks at 37° C., NaCl 50 mM, mannitol 22 mg/ml, phenol 1.5 mg/ml): 0.71%
Di- & polymers (%) formed ([2]; 8 weeks at 37° C., NaCl 50 mM, mannitol 22 mg/ml, phenol 4.0 mg/ml): 0.71%
Di- & polymers (%) formed ([2]; 8 weeks at 37° C., NaCl 75 mM, mannitol 13 mg/ml, phenol 1.5 mg/ml): 0.65%
Di- & polymers (%) formed ([2]; 8 weeks at 37° C., NaCl 75 mM, mannitol 13 mg/ml, phenol 4.0 mg/ml): 0.70%
Di- & polymers (%) formed ([2]; 8 weeks at 37° C., NaCl 100 mM, mannitol 5 mg/ml, phenol 1.5 mg/ml): 0.66%
Di- & polymers (%) formed ([2]; 8 weeks at 37° C., NaCl 100 mM, mannitol 5 mg/ml, phenol 4.0 mg/ml): 0.68%
Di- & polymers (%) formed ([2]; 13 weeks at 25° C., NaCl 20 mM, mannitol 31 mg/ml, phenol 1.5 mg/ml): 0.40%
Di- & polymers (%) formed ([2]; 13 weeks at 25° C., NaCl 20 mM, mannitol 31 mg/ml, phenol 4.0 mg/ml): 0.42%
Di- & polymers (%) formed ([2]; 13 weeks at 25° C., NaCl 50 mM, mannitol 22 mg/ml, phenol 1.5 mg/ml): 0.35%
Di- & polymers (%) formed ([2]; 13 weeks at 25° C., NaCl 50 mM, mannitol 22 mg/ml, phenol 4.0 mg/ml): 0.37%
Di- & polymers (%) formed ([2]; 13 weeks at 25° C., NaCl 75 mM, mannitol 13 mg/ml, phenol 1.5 mg/ml): 0.34%
Di- & polymers (%) formed ([2]; 13 weeks at 25° C., NaCl 75 mM, mannitol 13 mg/ml, phenol 4.0 mg/ml): 0.39%
Di- & polymers (%) formed ([2]; 13 weeks at 25° C., NaCl 100 mM, mannitol 5 mg/ml, phenol 1.5 mg/ml): 0.31%
Di- & polymers (%) formed ([2]; 13 weeks at 25° C., NaCl 100 mM, mannitol 5 mg/ml, phenol 4.0 mg/ml): 0.37%
